Source: the supplement of paper PMC5998384

Tested on: HeLa Kyoto
Assay: solubility change mitosis vs G1/S (difference of NP-40 vs SDS log2 ratios) (log2 ratio difference); higher = more soluble in mitosis
Details: not given
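For solubility change mitosis vs G1/S (difference of NP-40 vs SDS log2 ratios) in this document: synchronized HeLa Kyoto cells (double thymidine block for G1/S, nocodazole release for mitosis), protein amounts in NP-40 versus SDS lysates quantified by mass spectrometry, three biological replicates.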
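For thermal stability score vs G1/S (z-score of summed log2 fold changes over temperatures) in this document: synchronized HeLa Kyoto cells, proteins quantified by TMT10plex mass spectrometry, three biological replicates, mitosis taken 0.5 h after nocodazole release, G1/S directly after double thymidine block.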

Substance	solubility change mitosis (log2)
SMU1	0.423
TTR	0.336
RPL26	0.817
RPL14	0.811
RPS23	0.687
ITPA	0.0757
MRPL19	0.048
MRPL44	-0.0742
MRPS26	0.0692
PAF1	-0.0983
MGGSGSRLSKELLAEYQDLTFLTKQEILLAHRRFCELLPQEQRSVESSLRAQVPFEQILSLPELKANPFKERICRVFSTSPAKDSLSFEDFLDLLSVFSDTATPDIKSHYAFRIFDFDDDGTLNREDLSRLVNCLTGEGEDTRLSASEMKQLIDNILEESDIDRDGTINLSEFQHVISRSPDFASSFKIVL [CIB1]	-0.0256
PEX5	-0.137
ICT1	0.134
RPS25	0.71
MRPL42	0.296
RPL17	0.699
HAGH	0.0733
TMEM245	0.113
PACSIN3	0.0183
RPL7L1	1.18

Substance	solubility change mitosis (log2)
MRPL16	0.059
RPL28	0.852
RPS17	0.529
CLIC1	0.0655
POFUT1	-0.148
RPL10	0.638
PTDSS1	0.124
EIF6	0.0864
RTF1	0.0675
CTSB	-0.123
MRPL50	0.178
MRPL22	-0.00907
RPL18A	0.618
LAMTOR5	-0.0394
PRG4	0.251
MRPL21	0.00832
ABCE1	-0.151
PPP2R5C	-0.158
MRPL49	0.257
RPL37A	0.616

Tested on: HeLa Kyoto
Assay: thermal stability score vs G1/S (z-score of summed log2 fold changes over temperatures); higher = more thermally stable than in G1/S
Details: cell cycle stage: early G1 (4.5 h after nocodazole release)

Substance	thermal stability score
MATKEKLQCLKDFHKDILKPSPGKSPGTRPEDEAEGKPPQREKWSSKIDFVLSVAGGFVGLGNVWRFPYLCYKNGGGAFLIPYFIFLFGSGLPVFFLEIIIGQYTSEGGITCWEKICPLFSGIGYASVVIVSLLNVYYIVILAWATYYLFQSFQKELPWAHCNHSWNTPHCMEDTMRKNKSVWITISSTNFTSPVIEFWERNVLSLSPGIDHPGSLKWDLALCLLLVWLVCFFCIWKGVRSTGKVVYFTATFPFAMLLVLLVRGLTLPGAGAGIKFYLYPDITRLEDPQVWIDAGTQIFFSYAICLGAMTSLGSYNKYKYNSYRDCMLLGCLNSGTSFVSGFAIFSILGFMAQEQGVDIADVAESGPGLAFIAYPKAVTMMPLPTFWSILFFIMLLLLGLDSQFVEVEGQITSLVDLYPSFLRKGYRREIFIAFVCSISYLLGLTMVTEGGMYVFQLFDYYAASGVCLLWVAFFECFVIAWIYGGDNLYDGIEDMIGYRPGPWMKYSWAVITPVLCVGCFIFSLVKYVPLTYNKTYVYPNWAIGLGWSLALSSMLCVPLVIVIRLCQTEGPFLVRVKYLLTPREPNRWAVEREGATPYNSRTVMNGALVKPTHIIVETMM [SLC6A6]	-2.77
MEAAVAPGRDAPAPAASQPSGCGKHNSPERKVYMDYNATTPLEPEVIQAMTKAMWEAWGNPSSPYSAGRKAKDIINAARESLAKMIGGKPQDIIFTSGGTESNNLVIHSVVKHFHANQTSKGHTGGHHSPVKGAKPHFITSSVEHDSIRLPLEHLVEEQVAAVTFVPVSKVSGQAEVDDILAAVRPTTRLVTIMLANNETGIVMPVPEISQRIKALNQERVAAGLPPILVHTDAAQALGKQRVDVEDLGVDFLTIVGHKFYGPRIGALYIRGLGEFTPLYPMLFGGGQERNFRPGTENTPMIAGLGKAAELVTQNCEAYEAHMRDVRDYLEERLEAEFGQKRIHLNSQFPGTQRLPNTCNFSIRGPRLQGHVVLAQCRVLMASVGAACHSDHGDQPSPVLLSYGVPFDVARNALRLSVGRSTTRAEVDLVVQDLKQAVAQLEDQA [SCLY]	-0.479
MELWPCLAAALLLLLLLVQLSRAAEFYAKVALYCALCFTVSAVASLVCLLRHGGRTVENMSIIGWFVRSFKYFYGLRFEVRDPRRLQEARPCVIVSNHQSILDMMGLMEVLPERCVQIAKRELLFLGPVGLIMYLGGVFFINRQRSSTAMTVMADLGERMVRENLKVWIYPEGTRNDNGDLLPFKKGAFYLAVQAQVPIVPVVYSSFSSFYNTKKKFFTSGTVTVQVLEAIPTSGLTAADVPALVDTCHRAMRTTFLHISKTPQENGATAGSGVQPAQ [AGPAT2]	-0.0581
MREIVHIQAGQCGNQIGAKFWEVISDEHGIDPSGNYVGDSDLQLERISVYYNEASSHKYVPRAILVDLEPGTMDSVRSGAFGHLFRPDNFIFGQSGAGNNWAKGHYTEGAELVDSVLDVVRKECENCDCLQGFQLTHSLGGGTGSGMGTLLISKVREEYPDRIMNTFSVVPSPKVSDTVVEPYNATLSIHQLVENTDETYCIDNEALYDICFRTLKLATPTYGDLNHLVSATMSGVTTSLRFPGQLNADLRKLAVNMVPFPRLHFFMPGFAPLTARGSQQYRALTVPELTQQMFDAKNMMAACDPRHGRYLTVATVFRGRMSMKEVDEQMLAIQSKNSSYFVEWIPNNVKVAVCDIPPRGLKMSSTFIGNSTAIQELFKRISEQFTAMFRRKAFLHWYTGEGMDEMEFTEAESNMNDLVSEYQQYQDATAEEEGEMYEDDEEESEAQGPK [TUBB3]	-0.669

Same assay, conditions: cell cycle stage: mitosis

Substance	thermal stability score
MATKEKLQCLKDFHKDILKPSPGKSPGTRPEDEAEGKPPQREKWSSKIDFVLSVAGGFVGLGNVWRFPYLCYKNGGGAFLIPYFIFLFGSGLPVFFLEIIIGQYTSEGGITCWEKICPLFSGIGYASVVIVSLLNVYYIVILAWATYYLFQSFQKELPWAHCNHSWNTPHCMEDTMRKNKSVWITISSTNFTSPVIEFWERNVLSLSPGIDHPGSLKWDLALCLLLVWLVCFFCIWKGVRSTGKVVYFTATFPFAMLLVLLVRGLTLPGAGAGIKFYLYPDITRLEDPQVWIDAGTQIFFSYAICLGAMTSLGSYNKYKYNSYRDCMLLGCLNSGTSFVSGFAIFSILGFMAQEQGVDIADVAESGPGLAFIAYPKAVTMMPLPTFWSILFFIMLLLLGLDSQFVEVEGQITSLVDLYPSFLRKGYRREIFIAFVCSISYLLGLTMVTEGGMYVFQLFDYYAASGVCLLWVAFFECFVIAWIYGGDNLYDGIEDMIGYRPGPWMKYSWAVITPVLCVGCFIFSLVKYVPLTYNKTYVYPNWAIGLGWSLALSSMLCVPLVIVIRLCQTEGPFLVRVKYLLTPREPNRWAVEREGATPYNSRTVMNGALVKPTHIIVETMM [SLC6A6]	-2.51
MEAAVAPGRDAPAPAASQPSGCGKHNSPERKVYMDYNATTPLEPEVIQAMTKAMWEAWGNPSSPYSAGRKAKDIINAARESLAKMIGGKPQDIIFTSGGTESNNLVIHSVVKHFHANQTSKGHTGGHHSPVKGAKPHFITSSVEHDSIRLPLEHLVEEQVAAVTFVPVSKVSGQAEVDDILAAVRPTTRLVTIMLANNETGIVMPVPEISQRIKALNQERVAAGLPPILVHTDAAQALGKQRVDVEDLGVDFLTIVGHKFYGPRIGALYIRGLGEFTPLYPMLFGGGQERNFRPGTENTPMIAGLGKAAELVTQNCEAYEAHMRDVRDYLEERLEAEFGQKRIHLNSQFPGTQRLPNTCNFSIRGPRLQGHVVLAQCRVLMASVGAACHSDHGDQPSPVLLSYGVPFDVARNALRLSVGRSTTRAEVDLVVQDLKQAVAQLEDQA [SCLY]	-0.778
MELWPCLAAALLLLLLLVQLSRAAEFYAKVALYCALCFTVSAVASLVCLLRHGGRTVENMSIIGWFVRSFKYFYGLRFEVRDPRRLQEARPCVIVSNHQSILDMMGLMEVLPERCVQIAKRELLFLGPVGLIMYLGGVFFINRQRSSTAMTVMADLGERMVRENLKVWIYPEGTRNDNGDLLPFKKGAFYLAVQAQVPIVPVVYSSFSSFYNTKKKFFTSGTVTVQVLEAIPTSGLTAADVPALVDTCHRAMRTTFLHISKTPQENGATAGSGVQPAQ [AGPAT2]	0.548
MREIVHIQAGQCGNQIGAKFWEVISDEHGIDPSGNYVGDSDLQLERISVYYNEASSHKYVPRAILVDLEPGTMDSVRSGAFGHLFRPDNFIFGQSGAGNNWAKGHYTEGAELVDSVLDVVRKECENCDCLQGFQLTHSLGGGTGSGMGTLLISKVREEYPDRIMNTFSVVPSPKVSDTVVEPYNATLSIHQLVENTDETYCIDNEALYDICFRTLKLATPTYGDLNHLVSATMSGVTTSLRFPGQLNADLRKLAVNMVPFPRLHFFMPGFAPLTARGSQQYRALTVPELTQQMFDAKNMMAACDPRHGRYLTVATVFRGRMSMKEVDEQMLAIQSKNSSYFVEWIPNNVKVAVCDIPPRGLKMSSTFIGNSTAIQELFKRISEQFTAMFRRKAFLHWYTGEGMDEMEFTEAESNMNDLVSEYQQYQDATAEEEGEMYEDDEEESEAQGPK [TUBB3]	0.329
